# Test results taken from patent publication US20080166293A1.
# Biological target: human transferrin receptor (hTfR) (human) (UniProt P02786)
# Assay: Scatchard analysis, 125I-labelled protein (tyrosine of the peptide iodinated) on CEF+hTfR cells on ice
# Chain of human transferrin receptor (hTfR) (human) (P02786 whole entry): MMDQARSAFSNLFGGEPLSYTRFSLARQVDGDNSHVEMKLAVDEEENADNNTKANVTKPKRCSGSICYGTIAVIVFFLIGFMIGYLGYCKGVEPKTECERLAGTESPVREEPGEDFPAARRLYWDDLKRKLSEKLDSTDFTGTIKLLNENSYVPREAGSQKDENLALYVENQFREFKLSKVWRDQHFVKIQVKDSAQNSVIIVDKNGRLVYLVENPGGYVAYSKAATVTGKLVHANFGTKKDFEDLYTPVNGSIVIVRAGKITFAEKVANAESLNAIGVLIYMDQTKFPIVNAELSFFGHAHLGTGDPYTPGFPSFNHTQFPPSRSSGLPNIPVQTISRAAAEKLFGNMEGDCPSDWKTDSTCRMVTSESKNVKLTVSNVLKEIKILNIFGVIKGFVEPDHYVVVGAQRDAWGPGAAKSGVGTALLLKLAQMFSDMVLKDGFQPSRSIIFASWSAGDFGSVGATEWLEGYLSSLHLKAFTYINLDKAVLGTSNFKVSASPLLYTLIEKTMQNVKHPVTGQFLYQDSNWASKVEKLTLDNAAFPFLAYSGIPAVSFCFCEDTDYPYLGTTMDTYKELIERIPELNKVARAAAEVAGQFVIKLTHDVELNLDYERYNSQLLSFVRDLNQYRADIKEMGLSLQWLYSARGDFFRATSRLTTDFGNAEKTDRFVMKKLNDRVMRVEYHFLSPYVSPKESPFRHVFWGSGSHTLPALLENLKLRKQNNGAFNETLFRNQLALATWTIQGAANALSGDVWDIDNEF
substance,measurement,value
GFP-HAIYPRH (Seq. ID No. 1),Kd,360 µM
